Data on one molecule can be found in publication PMC4771075.

The test concerns the target Dyn A(1-11)NH2 (Rattus norvegicus). The test can be described thus: radioligand.

B1: KOR, P34975 (protein)
chain: MESPIQIFRGEPGPTCAPSACLLPNSSSWFPNWAESDSNGSVGSEDQQLEPAHISPAIPVIITAVYSVVFVVGLVGNSLVMFVIIRYTKMKTATNIYIFNLALADALVTTTMPFQSAVYLMNSWPFGDVLCKIVISIDYYNMFTSIFTLTMMSVDRYIAVCHPVKALDFRTPLKAKIINICIWLLASSVGISAIVLGGTKVREDVDVIECSLQFPDDEYSWWDLFMKICVFVFAFVIPVLIIIVCYTLMILRLKSVRLLSGSREKDRNLRRITKLVLVVVAVFIICWTPIHIFILVEALGSTSHSTAVLSSYYFCIALGYTNSSLNPVLYAFLDENFKRCFRDFCFPIKMRMERQSTNRVRNTVQDPASMRDVGGMNKPV
The term Ki denotes a measure of affinity in units of concentration, obtained from inhibition or displacement. Read a high Ki as weaker binding. B1: the Ki was 2.6 nM.
